“Also recorded” adds a separate entry of the source.
Legend:
[1] = target: substrate peptide for Src kinase (SEQ ID NO:1); assay: cell-based or functional assay
[2] = target: Src kinase (Homo sapiens, UniProt P12931); assay: SERS peptide-conjugated nanoprobe assay of Src kinase inhibition; format: biochemical; settings: with increasing concentration of inhibitor
Procedure: Src kinase SERS probes were tested and calibrated using purified p60 cellular Src kinase first. The real time peptide SERS spectra were recorded in the reaction with 10 nM Src kinase at 37° C. […] The phosphorylation level was defined as the normalized ratio of peak intensities between 1004 cm^−1 and 1260 cm^−1. […] The real time phosphorylation level in the reactions was characterized with various concentrations of Src kinase. […] The reaction constants of the Src kinase at different concentration can be calculated using the Michaelis-Maten model.
Different Src kinase inhibitors were tested using the peptide-conjugated nanoprobe assay. The phosphorylation level of the Src kinase with the addition of the inhibitors PP2, PP3 and SU5656 was tested. […] The IC50 concentrations for the three inhibitors were characterized respectively.
A microscopy system with Raman spectrometer was used to acquire Raman scattering spectra from single nanocrescents. […] A 785 nm semiconductor laser was used in our experiments as the excitation source of Raman scattering, and the laser beam was focused by a 40× objective lens on the nanocrescent. The excitation power was measured by a photometer (Newport, Calif.) to be ˜0.8 mW. The Raman scattering light was then collected through the same optical pathway through a long-pass filter and analyzed by the spectrometer.

[3] = tested on: substrate peptide for Src kinase (SEQ ID NO:1)

Chain of Src kinase (P12931 whole entry): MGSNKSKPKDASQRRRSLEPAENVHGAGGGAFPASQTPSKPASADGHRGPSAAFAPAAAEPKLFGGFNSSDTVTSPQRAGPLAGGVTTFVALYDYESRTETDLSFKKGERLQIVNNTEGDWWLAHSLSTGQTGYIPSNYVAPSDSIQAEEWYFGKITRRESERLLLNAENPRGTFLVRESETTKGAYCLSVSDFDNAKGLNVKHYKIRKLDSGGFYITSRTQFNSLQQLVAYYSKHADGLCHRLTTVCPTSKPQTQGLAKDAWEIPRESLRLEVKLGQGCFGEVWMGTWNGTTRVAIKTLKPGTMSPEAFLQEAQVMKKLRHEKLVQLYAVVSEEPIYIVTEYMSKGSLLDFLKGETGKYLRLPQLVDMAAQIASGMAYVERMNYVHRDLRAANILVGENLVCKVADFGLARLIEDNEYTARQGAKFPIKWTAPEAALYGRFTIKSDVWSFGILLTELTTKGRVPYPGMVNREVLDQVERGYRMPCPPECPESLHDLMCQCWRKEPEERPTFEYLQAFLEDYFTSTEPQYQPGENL

Compound: virus Src protein (in crude lysate of transfected 3T9 mouse fibroblast cells) (enzyme)
- phosphorylation level (SERS, crude cell lysate) [1]: 3 times

Compound: CC(C)(C)n1nc(-c2ccc(Cl)cc2)c2c(N)ncnc21 [PP2]
- phosphorylation level of the Src kinase with the addition of the inhibitors [2]: decreases significantly

Compound: purified p60 cellular Src kinase
- minimal detectable concentration of Src kinase (SERS phosphorylation assay) [3]: the minimal detectable concentration is above 10 pM
- phosphorylation level (normalized ratio of peak intensities between 1004 cm^-1 and 1260 cm^-1, SERS) [3]: increased more than 6-fold after the reactions with 10 nM Src kinase; also recorded: The phosphorylation level saturated at around 7 for high concentration of Src kinase

Compound: Nc1ncnc2c1cnn2-c1ccccc1 [PP3]
- phosphorylation level of the Src kinase with the addition of the inhibitors [2]: decreases significantly

Compound: CN(C)S(=O)(=O)c1ccc2c(c1)/C(=C/c1cc3c([nH]1)CCCC3)C(=O)N2 [SU5656]
- phosphorylation level of the Src kinase with the addition of the inhibitors [2]: decreases significantly
